Where no end group is shown, it is not given here.
Legend:
[1] = target: T1, G3BP1 (Mus musculus, UniProt P97855); test: G3BP1 turbidity assay (OD395 nm); type: biochemical; conditions: G3BP1 30 μM, ratio range 0.75 to 25, room temperature, 10 minutes
T1 construct: Genes of full-length mouse G3BP1, G3BP1-eGFP; thrombin protease cleavage site (C); His6 (C); made in house; host or cells: Escherichia coli rosetta (DE3)
Procedure: The turbidity of G3BP1 (30 μM) in the presence of various concentrations of Champ-E, Champ-D, Champ-K, or Champ-Q was measured at a wavelength of 395 nm. Briefly, G3BP1 protein ([…]) and polypeptides Champ-E (RJK001), Champ-D (RJK002), Champ-K (RJK012) and Champ-Q (RJK005) were mixed well in a ratio range of 0.75 to 25 at room temperature for 10 minutes prior to turbidity assays. Absorbance at 395 nm (OD395 nm) was monitored at room temperature using Nanodrop ONE (Thermo Fisher Scientific, Inc.). […] The turbidity level reflects the degree of phase separation.
Briefly, the G3BP1 protein and the above-mentioned peptides were mixed at room temperature for 10 minutes prior to turbidity assays. 30 μM G3BP1 and peptide were mixed well in a ratio range of 0.75 to 25 before test. Absorbance at 395 nm (OD395 nm) was monitored at room temperature using Nanodrop ONE (Thermo Fisher Scientific, Inc.).
We followed the Turbidity Assays experiment as previously reported. Briefly, G3BP1 turbidity analysis were at room temperature and γD-crystallin protein was at 4° C. Proteins and Champ-E(RJK001), Champ-K, Champ-D or mutants are mixed at room temperature for 10 minutes prior to turbidity assays. 20 μM G3BP1 and 50 mg/ml(2.5 mM) γD-crystallin and peptide were mixed well in a ratio range of 0.75 to 25 before test. Absorbance at 395 nm (OD395 nm) was monitored at room temperature using Nanodrop ONE (Thermo Fisher Scientific, Inc.).

[2] = target: T2, G3BP1-GFP protein (Mus musculus, UniProt P97855); test: G3BP1-GFP phase separated droplet dissolution, confocal laser microscope; type: biochemical; conditions: 60 uM polypeptide, 20 uM G3BP1-GFP
T2 construct: Genes of full-length mouse G3BP1, G3BP1-eGFP; thrombin protease cleavage site (C); His6 (C); made in house; host or cells: Escherichia coli rosetta (DE3)
Procedure: The prokaryotic expressed and purified G3BP1-GFP protein (pH7.5, 20 uM G3BP1-GFP) was induced to form phase separated droplets in vitro. Polypeptides Champ-E (RJK001), Champ-D (RJK002), Champ-K (RJK012) and Champ-Q (RJK005, […], SEQ ID NO: 34) (each of 60 uM) were added dropwise to the G3BP1-GFP droplets. The observation was performed continuously through a confocal laser microscope.
For G3BP1(FL)-eGFP, purified G3BP1(FL)-eGFP, Champ-E and its variants were changed were diluted to droplet buffer (50 mM Tris, pH 7.5, 150 mM NaCl) using SpinDesalt Column (smart). G3BP1(FL)-eGFP proteins were diluted to indicated concentrations and supplemented with PEG8000 with 1.25% final concentration for 10 min to induce phase separation as reported.

[3] = system: γD (W42D) aggregates in the SH-SY5Y cell; test: γD (W42D) aggregates in SH-SY5Y cells, live imaging and CellProfiler analysis; type: cell-based; conditions: added every 4 hours for a total of 24 hours
Procedure: Cells were grown in a 12-well plate (1×10^5 cells per well) for 24 hours and transfected with γD (W42D) plasmid using EZtrans transfection reagent. 24 hours after transfection, Champ peptides RJK001 (final concentration of 20 uM) and RJK0012 (final concentration of 10 uM and 20 uM) were added into SH-SY5Y cell culture medium every 4 hours for a total of 24 hours. The effect of RJK001 and RJK012 polypeptide on the γD (W42D) aggregates in the SH-SY5Y cell mode were analyzed using a custom CellProfiler software. Briefly, cell bodies were then segmented and identified by the GFP fluorescence channel images and tracing outward to the limits of the cytoplasmic (using a diameter cutoff of 100-300 pixels). The cell bodies were used as masks to eliminate imaging artifacts outside of cell boundaries, such as background fluorescence or dead cells. After masking, punctate structures were enhanced by image processing for speckle-like features that were 10 pixels in diameter for SH-SY5Y cells and these punctate structures were then annotated as features such as γD (W42D) puncta. Finally, the total image area which was enclosed in each of the identified features (number of cell and punctate) was calculated and output to spreadsheets. At least 200 cells per sample were analyzed. […]
Granules screen and assay images were segmented and image features quantified using a custom CellProfiler and ImageJ software. […] The effect of RJK001 and RJK012 polypeptide on the γD ([…]) aggregates in the SH-SY5Y cell mode were analyzed using a custom CellProfiler software. Briefly, cell bodies were then segmented and identified by the GFP fluorescence channel images and tracing outward to the limits of the cytoplasmic (using a diameter cutoff of 100-300 pixels). The cell bodies were used as masks to eliminate imaging artifacts outside of cell boundaries, such as background fluorescence or dead cells. […] Finally, the total image area which was enclosed in each of the identified features (number of cell and punctate) was calculated and output to spreadsheets. At least 200 cells per sample were analyzed.

[4] = Half-life of cell-penetrating peptide fused Champ peptides in eukaryotic cells (western blot); type: in vitro ADME; conditions: SH-SY5Y cells harvested at 1 h, 4 h, 8 h and 24 h, western blot
Procedure: (§1) As described in Example 1, the polypeptide RJK001 was fused at its C-terminal with a cell-penetrating peptide ([…]) and the polypeptide RJK012 was fused at its N-terminal with a cell-penetrating peptide ([…]).
(§2) C-terminal fusion cell-penetrating peptide RJK001 and N-terminal fusion cell-penetrating peptide RJK012 were purified in vitro and added into SH-SY5Y cell. Cells were harvested at 1 h, 4 h, 8 h and 24 h respectively and were washed with PBS. Total proteins were extracted from SH-SY5Y cells with lysis buffer. Equal amounts of protein (20 μg) were separated by SDS-PAGE (15% separating gel). For data analysis, ImageJ was used to detect the Integrated density of each protein bands, and the ratio and half-life of Champ peptides were calculated by comparing with the positive control. […]
(§3) Cells were harvested at 1 h, 4 h, 8 h and 24 h respectively and were washed with PBS. […] For data analysis, quantification of the western blot bands was achieved using the software GELPRO (Media Cybernetics). The ratio and half-life of Champ peptides were calculated by comparing with the positive control. The presented quantitative data were calculated from three independent experiments.

[5] = target: T3, wild-type human full-length γD-crystallin (human, UniProt P07320 1-174); test: 1H-15N HSQC NMR chemical shift differences, 15N γD-crystallin with unlabeled RJK001 at 1:2
T3 construct: It was uniformly 15N-labelled for the HSQC experiment and unlabelled for the turbidity assay; also called full-length wildtype γD-crystallin protein; 15N γD-crystallin
T3 sequence (looked up): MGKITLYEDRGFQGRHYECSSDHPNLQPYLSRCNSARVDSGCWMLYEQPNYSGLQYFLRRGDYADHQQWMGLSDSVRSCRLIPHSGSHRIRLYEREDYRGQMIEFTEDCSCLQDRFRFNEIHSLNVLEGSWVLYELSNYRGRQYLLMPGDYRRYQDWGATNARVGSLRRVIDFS
Procedure: Using final 300 uM human γD-crystallin at 25° C., the two-dimensional [¹H-¹⁵N] heteronuclear single quantum coherence (HSQC) spectra were recorded to determine the domain interactions at the residue-specific level.

[6] = system: SH-SY5Y cells; test: Half-life of cell-penetrating peptide fused Champ peptides in eukaryotic cells (western blot); type: in vitro ADME
Procedure: as §1, §2, §3

TDPQDDSDDDVDDPDDRQQTPDVVPDDSGTFYDQTVSNDLD [RJK002, Asp variant of Champ-E]
turbidity of G3BP1 (OD395 nm) [1]: reduced the turbidity in a concentration dependent manner
dissolution of G3BP1-GFP phase separated droplets ([2]; pH7.5, 40s after addition): partially dissolved the phase separated droplets
dissolution of G3BP1-GFP phase separated droplets ([2]; pH7.5, 120s after addition): dissolved more phase separated droplets

TKPQKKSKKKVKKPKKRQQTPKVVPDDSGTFYDQTVSNDLK [RJK012, Lys variant of Champ-E]
number of γD (W42D) aggregates in the SH-SY5Y cell ([3]; 10 uM): reduced the number of γD (W42D) aggregates in the SH-SY5Y cell in a time-dependent manner until 6 hours
number of γD (W42D) aggregates in the SH-SY5Y cell ([3]; 20 uM): reduced the number of γD (W42D) aggregates in the SH-SY5Y cell in a time-dependent manner until 12 hours
turbidity of G3BP1 (OD395 nm) [1]: reduced the turbidity in a concentration dependent manner
dissolution of G3BP1-GFP phase separated droplets ([2]; pH7.5, 40s after addition): significantly dissolved the phase separated droplets

TEPQEESEEEVEEPEERQQTPEVVPDDSGTFYDQTVSNDLEGGRKKRRQRRRHHHHHHHH
half-life [4]: ~8 h

TQPQQQSQQQVQQPQQRQQTPQVVPDDSGTFYDQTVSNDLQ [RJK005]
turbidity of G3BP1 (OD395 nm) [1]: much less effect on the reduction of the turbidity
dissolution of G3BP1-GFP phase separated droplets ([2]; pH7.5, 120s after addition): did not dissolve the phase separated droplets

B1: Champ-E (RJK001) (peptide)
peptide: TEPQEESEEEVEEPEERQQTPEVVPDDSGTFYDQTVSNDLE
notes: The peptide was unlabeled in the NMR experiment; also called short peptide RJK001
binding result [5]: binds

B2: RQIKIWFQNRRMKWKKKTKPQKKSKKKVKKPKKRQQTPKVVPDDSGTFYDQTVSNDLKSGRPVLHHHHHH (peptide)
chain: RQIKIWFQNRRMKWKKKTKPQKKSKKKVKKPKKRQQTPKVVPDDSGTFYDQTVSNDLKSGRPVLHHHHHH
half-life in eukaryotic cells [6]: about 8 hours
turbidity of G3BP1 (OD395 nm) [1]: reduce the turbidity in a concentration dependent manner

Source: patent US20250352611A1, “METHODS FOR TREATING CATARACTS USING POLYPEPTIDES” (REJUKON BIOPHARM INC., priority 2022, published 2025)
